{"source": "paper PMC6943187", "target": "WT FUS::EGFP (FUS tagged with a C-terminal GFP tag) (UniProt P35637)", "assay": "single-molecule photobleaching step counting", "data": [{"substance": "WT FUS::EGFP (FUS tagged with a C-terminal GFP tag) (from UniProt P35637 1-526)", "values": [{"measurement": "fraction of dimers (two-step photobleaching)", "value": 30, "unit": "%"}]}]}
